Laboratory results taken from patent US20220041736A1 (Amgen, published 2022).

Legend:
[1] = molecular target: T1, BSA (bovine serum albumin, blocking agent) (bovine, UniProt P02769 25-607); assay: ELISA, blocked wells without antigen, crude periplasmic preparation
T1 construct: also called bovine Albumin, fraction V

[2] = molecular target: T2, human 1-27 CD3 BSA conjugate (peptide of the N-terminal amino acids 1-27 of human CD3 epsilon plus C-terminal … (human, printed as acetyl-QDGNEEMGGITQTPYKVSISGTTVILTC; C-terminal Cys 28 coupled to maleimide activated BSA); assay: ELISA, immobilized antigen, crude periplasmic preparation
T2 construct: also called peptide-BSA conjugate
T2 peptide: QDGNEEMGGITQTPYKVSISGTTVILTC

[3] = molecular target: T3, 1-27 CD3-Fc (N-terminal amino acids 1-27 of the mature human CD3 epsilon chain fused to the hinge and Fc … (human)); assay: as above
T3 construct: Entry 229 is printed without the leader peptide; also called 27 aa huCD3ε; 1-27 CD3ε-Fc

[4] = molecular target: T3, 1-27 CD3-Fc (N-terminal amino acids …); assay: ELISA, captured 1-27 CD3-Fc, crude periplasmic scFv
tamarin 1-27 CD3ε-EpCAM = molecular target: T4, tamarin 1-27 CD3ε-EpCAM (Saguinus oedipus CD3 epsilon 1-27 / …); assay: FACS, transfected 293-HEK cells
T4 construct: Transmembrane fusion on 293-HEK or CHO cells; also called 1-27 CD3-EpCAM comprising the tamarin 27 mer
T4 chain: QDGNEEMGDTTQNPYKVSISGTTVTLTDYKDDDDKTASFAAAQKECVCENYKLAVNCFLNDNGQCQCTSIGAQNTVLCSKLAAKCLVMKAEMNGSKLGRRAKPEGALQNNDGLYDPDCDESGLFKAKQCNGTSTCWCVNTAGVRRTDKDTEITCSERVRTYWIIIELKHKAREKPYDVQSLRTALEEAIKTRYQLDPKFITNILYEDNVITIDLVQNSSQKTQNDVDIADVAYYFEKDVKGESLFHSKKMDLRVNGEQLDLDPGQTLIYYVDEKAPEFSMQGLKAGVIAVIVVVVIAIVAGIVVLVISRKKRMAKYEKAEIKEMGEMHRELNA

[5] = molecular target: T5, human 1-27 CD3ε-EpCAM (1-27 N-terminal amino acids of human CD3 epsilon, Flag tag, cynomolgus EpCAM) (human CD3 epsilon 1-27 / cynomolgus …); assay: FACS, transfected 293-HEK cells
T5 construct: also called 1-27 CD3-EpCAM comprising the human 27 mer
T5 chain: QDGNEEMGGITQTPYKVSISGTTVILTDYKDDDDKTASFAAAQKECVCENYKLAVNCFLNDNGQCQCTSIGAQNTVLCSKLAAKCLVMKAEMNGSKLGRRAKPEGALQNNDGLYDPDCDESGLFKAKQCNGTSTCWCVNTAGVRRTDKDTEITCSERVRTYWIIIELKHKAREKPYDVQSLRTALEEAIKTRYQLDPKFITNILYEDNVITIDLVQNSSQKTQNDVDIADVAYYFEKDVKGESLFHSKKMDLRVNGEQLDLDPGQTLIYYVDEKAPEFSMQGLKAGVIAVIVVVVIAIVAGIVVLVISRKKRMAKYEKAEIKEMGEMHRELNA

marmoset 1-27 CD3ε-EpCAM = molecular target: T6, marmoset 1-27 CD3ε-EpCAM (Callithrix jacchus CD3 epsilon 1-27 / …); assay: FACS, transfected 293-HEK cells
T6 construct: Transmembrane fusion on 293-HEK or CHO cells; also called 1-27 CD3-EpCAM comprising the marmoset 27 mer
T6 chain: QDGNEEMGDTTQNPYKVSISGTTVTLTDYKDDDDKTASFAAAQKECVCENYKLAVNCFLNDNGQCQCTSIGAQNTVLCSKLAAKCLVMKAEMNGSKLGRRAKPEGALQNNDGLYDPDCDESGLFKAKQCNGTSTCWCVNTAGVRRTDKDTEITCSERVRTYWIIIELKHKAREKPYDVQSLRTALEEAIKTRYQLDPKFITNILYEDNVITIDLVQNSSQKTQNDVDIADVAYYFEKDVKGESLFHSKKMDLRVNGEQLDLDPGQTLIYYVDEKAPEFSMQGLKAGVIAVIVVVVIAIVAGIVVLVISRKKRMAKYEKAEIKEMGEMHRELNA

[6] = molecular target: T7, squirrel monkey 1-27 CD3ε-EpCAM (Saimiri sciureus CD3 epsilon 1-27 / …); assay: FACS, transfected 293-HEK cells
T7 construct: Transmembrane fusion on 293-HEK or CHO cells; also called 1-27 CD3-EpCAM comprising the squirrel monkey 27 mer
T7 chain: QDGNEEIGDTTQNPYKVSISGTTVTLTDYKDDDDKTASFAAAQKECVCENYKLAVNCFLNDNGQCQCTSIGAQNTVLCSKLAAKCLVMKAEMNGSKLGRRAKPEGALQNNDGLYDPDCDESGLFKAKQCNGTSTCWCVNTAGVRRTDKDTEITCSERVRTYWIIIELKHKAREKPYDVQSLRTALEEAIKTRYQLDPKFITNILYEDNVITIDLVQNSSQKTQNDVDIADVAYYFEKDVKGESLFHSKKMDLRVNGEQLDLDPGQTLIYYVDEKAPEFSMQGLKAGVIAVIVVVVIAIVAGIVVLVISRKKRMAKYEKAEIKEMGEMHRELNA

swine 1-27 CD3ε-EpCAM = molecular target: T8, swine 1-27 CD3ε-EpCAM (Sus scrofa CD3 epsilon 1-27 / …); assay: FACS, transfected 293-HEK cells, crude periplasmic scFv
T8 construct: Negative control construct on 293-HEK or CHO cells; also called 1-27 CD3-EpCAM comprising the swine 27 mer
T8 chain: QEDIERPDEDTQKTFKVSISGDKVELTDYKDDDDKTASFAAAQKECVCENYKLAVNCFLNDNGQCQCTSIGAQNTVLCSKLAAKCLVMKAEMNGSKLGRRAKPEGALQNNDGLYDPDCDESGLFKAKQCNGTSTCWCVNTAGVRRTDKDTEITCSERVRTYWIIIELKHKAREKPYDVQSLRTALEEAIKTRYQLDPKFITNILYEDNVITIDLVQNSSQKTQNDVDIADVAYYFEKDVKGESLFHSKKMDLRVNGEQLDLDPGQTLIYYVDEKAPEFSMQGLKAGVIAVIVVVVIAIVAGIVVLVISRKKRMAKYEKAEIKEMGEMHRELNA

T1 sequence (P02769 25-607 limits assumed): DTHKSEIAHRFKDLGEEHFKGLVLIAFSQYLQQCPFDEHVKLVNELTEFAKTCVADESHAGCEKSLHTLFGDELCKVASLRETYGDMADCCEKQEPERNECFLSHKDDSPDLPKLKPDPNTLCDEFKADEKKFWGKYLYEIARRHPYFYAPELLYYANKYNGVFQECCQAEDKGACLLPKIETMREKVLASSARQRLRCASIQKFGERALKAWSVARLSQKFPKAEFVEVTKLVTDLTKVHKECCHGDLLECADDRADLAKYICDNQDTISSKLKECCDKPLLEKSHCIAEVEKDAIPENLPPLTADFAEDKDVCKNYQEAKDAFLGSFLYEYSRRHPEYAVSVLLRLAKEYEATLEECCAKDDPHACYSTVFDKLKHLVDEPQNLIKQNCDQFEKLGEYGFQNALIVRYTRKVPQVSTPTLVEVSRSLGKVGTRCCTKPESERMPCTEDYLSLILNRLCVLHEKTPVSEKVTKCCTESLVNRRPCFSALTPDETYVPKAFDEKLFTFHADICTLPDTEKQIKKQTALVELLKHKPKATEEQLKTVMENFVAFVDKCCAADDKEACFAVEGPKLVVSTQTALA

Binder	binding result [1]	binding result [2]	binding result [3]	binding result [4]	binding result (tamarin 1-27 CD3ε-EpCAM)	binding result [5]	binding result (marmoset 1-27 CD3ε-EpCAM)	binding result [6]	binding result (swine 1-27 CD3ε-EpCAM)
anti-CD3 single domain antibody CD3 3D-H11 (VHH, Crude periplasmic preparation from pComb3H5BFlag/His; also called V CD3 3D-H11) VHH: EVQLVESGGGLVQPGGSLRLSCAASGFTFDDYGMSWVRQAPGKWLEWVSDISWNGGSTYYADSVKGRFTISRDNAENTLYLQMNSLKPDDTAVYYCAKMGEGGWGANDYWGQGTQVTVSS	no binding	binds	binds	–	–	–	–	–	–
A2J HLP single-chain antibody (scFv, Crude periplasmic preparation from pComb3H5BFlag/His; also called VH-VL-P of A2J) scFv: EVQLLESGGGLVQPGGSLKLSCAASGFTFNVYAMNWVRQAPGKGLEWVARIRSKYNNYATYYADSVKKRFTISRDDSKNTAYLQMNNLKTEDTAVYYCVRHGNFGNSYLSWWAYWGQGTLVTVSSGGGGSGGGGSGGGGSELVVTQEPSLTVSPGGTVTLTCRSSTGAVTSGYYPNWVQQKPGQAPRGLIGATDMRPSGTPARFSGSLLGGKAALTLSGVQPEDEAEYYCALWYSNRWVFGGGTKLTVLTGDYKDDDDKHHHHHH	–	–	–	binds	–	–	–	–	–
E2M HLP single-chain antibody (scFv, Crude periplasmic preparation; also called VH-VL-P of E2M) scFv: EVQLLESGGGLVQPGGSLKLSCAASGFTFNGYAMNWVRQAPGKGLEWVARIRSKYNNYATYYADSVKERFTISRDDSKNTAYLQMNNLKTEDTAVYYCVRHRNFGNSYLSWFAYWGQGTLVTVSSGGGGSGGGGSGGGGSELVVTQEPSLTVSPGGTVTLTCRSSTGAVTSGYYPNWVQQKPGQAPRGLIGATDMRPSGTPARFSGSLLGGKAALTLSGVQPEDEAEYYCALWYSNRWVFGGGTKLTVLTGDYKDDDDKHHHHHH	–	–	–	binds	binds	binds	binds	binds	no binding
